According to US20180246080A1, “METHODS USING AXL AS A BIOMARKER OF EPITHELIAL-TO-MESENCHYMAL TRANSITION” (BERGEN TEKNOLOGIOVERFORING AS, priority 2009, published 2018):

B1: shAxl2: human Axl-targeting shRNA, SEQ ID NO: 1, expressed from retroviral vector (nucleic acid, listed as Homo sapiens)
chain: GACATCCTCTTTCTCCTGCGAAGCCCATCTGGTCATGGGCTTCGCAGGAGAAAGAGGATGTC
B2: shAxl279: ineffective human Axl-targeting shRNA, SEQ ID NO: 3, used as control (nucleic acid, listed as Homo sapiens)
chain: GCTTCAGGCGATTTCCCCGGCGTTGGATCCCTGGTCGGATCCAACGCCGGGGAAATCGCCTGAAGC

Key:
[1] = system: MDA-MB-231-D3H2LN cells; assay: Mammary fat pad spontaneous metastasis model, bioluminescence imaging; type: in vivo, NOD-SCID mice
Protocol: BLI was performed using a eXplore Optix (GE Healtcare) camera mounted in a specimen box. Imaging and quantification of signals was done using eXplore Optix software. For in vivo imaging, animals received via intraperitoneal injection (i.p) the substrate D-luciferin (Biosynth), 150 mg/kg in PBS (Phosphate Buffered Saline) and anesthetized with isoflurane. Mice were placed into warmed stage inside of camera box with continuous exposure to 1-2% isoflurane and imaged for different views depending on the tumor model. Region of interest were identified and were quantified as total photon/sec-1 using eXplore Optix software (GE Explore Optix). In vivo background bioluminescence was in the range of 2-3×10 photon counts. […]
Subline of human MDA-MB-231 cells (called MDA-MB 231 DH3L2N—Xenogen) which express GFP-Luc biomarker and different RNAs interference that regulate Axl expression were injected into mammary pad of mice. […] Tumor growth and metastasis spread was monitored every second week by bioluminescent imaging for up to 9 weeks. […]
In order to evaluate the requirement of Axl for breast cancer metastasis, we orthotopically injected MDA-MB-231-D3H2LN, a rapidly growing and highly metastatic in vivo MDA-231 isolate, into the mammary fat pad. Using whole body bioluminescent imaging we temporally monitored spontaneous metastasis development over a 9-week period. […]

[2] = system: MDA-MB-231/GFP-Luc cells; assay: Tissue engineered tricellular tumor implants (MDA-MB-231, EC, SMC) in scaffolds; type: in vivo, NOD-SCID mice
Source text: 1×10^6 MDA-MB 231 cells which express GFP-Luc biomarker and different RNAs interference that regulate Axl expression, were suspended in a 1:1 mixture of F-12 Kaighn's (Invitrogen) :Matrigel (BD Biosciences) and seeded in 6×6 mm Poly-lactic acid (PLLA) scaffolds.
Females NOD/SCID/B2mnull were anesthetized by exposure to 1-2% isoflurane (Isoba vet.-Schering-Plough A/S) during the implantation procedure and on subsequent imaging days. Two scaffolds were implanted subcutaneously (s.c) in each mouse according to Nor et al. Lab Invest.; 81 (4) 453; 2001 Scaffolds with cells that express Axl were implanted on the left side of each mouse while on the right side scaffolds with cells in which Axl was knockdown. After the surgical procedure, anesthetized mice were placed in Imaging System and imaged for both left and right sides 10-15 min after intraperitoneal injection of 150 mg/kg D-luciferin (Biosynth). Tumor development was monitored in vivo once a week by imaging for 4 weeks.
For tricellular implant MDA-MB-231 cells infected with shRNA vectors and GFP-Luc were mixed with Human dermal microvascular endothelial cells (HMVEC), and pulmonary artery smooth muscle cells (PASMC) in ratio of 1:2:2. Tumor growth was monitored weekly in vivo by imaging for 4 consecutive weeks.
To ascertain whether Axl influences the ability of breast cancer cells to attract and co-opt blood vessels, we developed a tri-cellular implant approach comprising MB-MDA-231 cells seeded together with primary human microvascular endothelial (HuMVEC) and vascular smooth muscle cells (vSMC) to create tumor vasculature. Implants of human EC-vSMC cells readily form perfused intrascaffold human microvasculature in NOD-SCID mice within a two-week period (Hegen et al., in preparation). […] The engineered human tumor vasculature is evenly distributed and perfused with intralumenal red blood cells. In contrast, Axl knockdown, blocked tumor formation, without affecting development of a perfused human microvasculature.

[3] = system: mouse Axl; assay: Flow cytometry of mouse Axl surface expression in 4T1-GFP-Luc cells; type: cell-based; settings: 4T1 cells, retroviral shRNA expression
Protocol: (§1) The MDA-MB-231 cells were trypsinated using standard procedures and washed in PBS-0.2% BSA before staining with anti-Axl (#MAB154, R&D Systems) at a final concentration of […] in PBS-0.2% BSA for 40 minutes at room temperature. Cells were washed twice in PBS-0.2% BSA) and incubated with secondary antibody (Goat anti-mouse APC (Allophyocyanin, crosslinked, Molecular Probes) at a final concentration of 0.2 mg/ml for 30 minutes at room temperature in the dark. Cells were washed twice with PBS-2% BSA and resuspended in […] PBS-0.2% BSA before analysis on a FacsCalibur Flow Cytometer (BD Biosciences). Data analyses were carried out using the FlowJo software (Tree Star, Inc., Ashland, Oreg., USA).
In order to validate our results in a different metastatic model we transduced the highly metastatic mouse breast carcinoma 4T1 cell line with the CSI-construct and selected for GFPluciferase expression by FACS (4T1-GFP-Luc). […] A mismatched human Axl-targeting shRNA (shAxl279) had no effect on mouse Axl expression.

[4] = system: Axl; assay: FACS analysis of Axl expression in epi-allelic MDA-MB-231 cell series; type: cell-based, human; settings: MDA-MB-231/GFP-Luc cells
Source text: All shRNAs were expressed from a modified human U6 promoter in the LTR of the retroviral vectors RRI-Red/L087 (Genbank: EU424173) used to transform MDA-MB-231 cells via retroviral infection. RRI-Red also expresses Puro2AmRed1 resulting in puromycin resistance and red fluorescence in successfully transformed cells. All Axl cDNA nucleotides are numbered as in Genbank: BC032229.
as §1, with “Data analyses were carried out using the FlowJo software (Tree Star, Inc., Ashland, Oreg., USA).” left out
The strong correlation of Axl expression in early breast carcinomas with poor survival indicates an important role for Axl in overall disease pathogenesis. As breast cancer-related mortality invariably results from complications of metastatic disease, we assessed whether Axl expression was required for malignant breast carcinoma cell invasiveness. […]

| Molecule | Overall survival ([1]; orthotopically injected MDA-MB-231-D3H2LN/GFP-Luc cells, P=0.013 log-rank test vs control) | Spontaneous metastasis ([1]; whole body bioluminescent imaging over 9 weeks) | Intrascaffold vessel diameter ([2]; excised tumors, 28 days) | Microvascular density ([2]; excised tumors, 28 days) | Tissue engineered tumor growth ([2]; tricellular implants, in vivo imaging) | mouse Axl surface levels [3] | Axl knockdown efficacy (Axl-targeting shRNA) [4] |
| --- | --- | --- | --- | --- | --- | --- | --- |
| B1 | significantly increased | no metastases were detected | unaffected | slightly enhanced | inhibited |  |  |
| B2 |  |  |  |  |  | had no effect | ineffective |
